Assay results as given in the supplement of paper PMC9170038.

System: K4 kissing-loop RNA reporter
Experiment: apparent KD of K4 kissing-loop reporter; higher = weaker reporter binding
Details: Eterna round: R107
Protocol: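 RNA-MaP round R107: designed RNA switches with theophylline, tryptophan, arginine or FMN aptamers are transcribed on-chip within common flanks. They are titrated with a labelled K4 kissing-loop RNA reporter in RNA-MaP buffer (100 mM Tris pH 7.5, 80 mM KCl, 4 mM MgCl2), without ligand or with the indicated ligand. Median apparent KD per design.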

[1] = input ligand: theophylline 20 uM
[2] = input ligand: tryptophan 2.4 mM
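Note: bound reporter read as fluorescence of individual clusters on recovered sequencing chips by microscopy, with normalized cluster intensities fitted with a binding model.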

| Sequence | apparent KD of K4 kissing-loop reporter (input ligand: FMN 200 uM) [nM] | apparent KD of K4 kissing-loop reporter (input ligand: arginine 13.2 mM) [nM] | apparent KD of K4 kissing-loop reporter (input ligand: none) [nM] | apparent KD of K4 kissing-loop reporter [1] [nM] | apparent KD of K4 kissing-loop reporter [2] [nM] |
| --- | --- | --- | --- | --- | --- |
| UGUGUUUACCUGACUCAGUGAUGUUGAGAAGGAGCGUGCUAAUGCACAGGUAGGUCGCUCAACCUAAAUUCAGGUGAGCACUAAA | 587 | 250 | 560 | 271 | 478 |
| AGAGUACGAAAGUACUCCUCUACACACUGCCGAGGACCGGUACGGCCGCCACUCGAGUUGAGUGAUGUUCGACAGUGUGUAGAGA [Omei KL Tryp A SS C v2] | 114 | 56.2 | 79 | 132 | 128 |
| CCAGAAUGAUGAAGAUGAUAAAUUACUGAAGGAGCGCAUAUAGUUGCAGGUAGGUCGCGGUGAAUAAGUAUAGUGAUGUUAUACC [SSArgA.Ac] | 265 | 167 | 221 | 217 | 204 |
| AGUGAUGUAUGGCGGUUUGUCACUUAUAAUCAGGAUAUAUAAACAAAUAGAAGGGAUGGCGGAGUGAUGUUCCGCCGGCCGCCAU [FMN A Exl V5] | 170 | 136 | 167 | 172 | 149 |
| UGUACCGAGUCAGGAUAUGAACGACUGACAAAAGUCGGUCGAAUAUCCAGUGAUGUUGGAAAUAAAUCAGAAGGGACUUGGUACU [FmnBS 15 #SwitchBubble #StaticStem] | 130 | 805 | 974 | 840 | 726 |
| UGGUUCAAUACGGCCGCCACUGGUGAGUGAUGUUUACCGUCUAUAUCAUGUGUCGAGAGCGCUAUCAGGACCGGGUAGGGACCGU [theeternabot_exclusion_KL_Trp_B_42] | 673 | 396 | 721 | 837 | 458 |
| AGAUAGGGCUGAAGGAGCGUCGGAGAAGAGAAGAAGGAAUCCAGUGAUGUUGGAUAGAUCCGACAGGUAGGUCGCAGUUUUAUGA [hbob_SS_Arginine_B_2t139] | 125 | 127 | 133 | 178 | 124 |
| AACGUGGCCAAAGGAUAUCUCCCUACGUCGUUGCAUCUACCUCUGUUUGCUCUGAGUGAUGUUUGGAGAGAAGGUUGAGGCGAUU [theeternabot_exclusion_KL_FMN_B_29] | 532 | 317 | 442 | 513 | 387 |
| CCGAAGAACCAGUGAUGUUGGUUGACUAGACAGGAUAUGAGCAACAUCAGAAGGGUCUGGCUUCGGGAGUGAGUCGCGCUGACUU [Reverigeed] | 260 | 192 | 319 | 254 | 314 |
| AUCAGUUCAGCUGAUACCAGUCAGGAGUGAUGUUCCUGCUCGCGUCAGCCGCGUCGACAAGACCCUUGGCAGCAGCUCUAAGUGU [theeternabot_exclusion_KL_Theo_B_40] | 114 | 98.1 | 110 | 103 | 110 |
| GUAUGUGGAAACACGUACUUGUAUCCUAGGCAGGAUAUGCGGAAACGCAGAAGGGCCACCGGCGAGUUUAUCCAGUGAUGUUGGA [Ex FMN A 9] | 245 | 257 | 291 | 251 | 237 |
| UCCACGCUUAGAGGAUAUCGGAUUAGAGUGAUGUUCUAAAGAAGCCCAGUGAUGUUGGAUGGUAUACGAGAAGGCUGUGGCGUGU [Same State FMN B GF 4] | 254 | 446 | 386 | 371 | 369 |
| GAACGGCGGGCGGCCGCCACUGGUAUACGAGUGAUGUUCGGAUAUACAUAAAAUAAGGUAAUUAACAGGACCGGGUCAGAGCCGG [Tryptophan B Same State; Euphoria Solution] | 138 | 130 | 165 | 142 | 118 |
| AGGAUGUAGUGAUGUUAUAUAAGAAGUAAACGAGGACCGGUACGGCCGCCACUCGAAGCGGCUACUAGCGCGUUGCGAGGUGCGC [ExTryptoA.Cc] | 391 | 451 | 372 | 370 | 286 |
| GUGUGUGAAAACACGCACUUAUAUCCUAGGCAGGAUAUGCGGAAACGCAGAAGGGCCACCGGCGAGAAAAUCCAGUGAUGUUGGA [Ex FMN A 6] | 281 | 245 | 273 | 192 | 251 |
| AAAAUUAACAAGAGUGAUGUUCUUGUUAGACAGGAUAUCGGUUUAACGAGAAGGGUCGUGGCUCCAUUGGGCCCAGUGGUUCACC [Mazareri] | 309 | 478 | 687 | 326 | 439 |
| UGAUUUAACUGAAGGAGCGGCAAUUGAGAAGGAAAUAUAGUGAUGUUAUAUAAGAGAGAGAGCCAGGUAGGUCGCAGAGGGAGGA [ExArgB.G] | 185 | 131 | 152 | 198 | 118 |
| GCCGUAGAUUGAAGGAGCGGACUUAUAGGUCUUAAGGAGUGAUGUUCCUGACACUCGGCGGUCCAGGUAGGUCGCAAUCUACGGC | 296 | 269 | 320 | 252 | 272 |
| UGACUACAAAAGGAAUAAUCCUAGUGAUGUUAGGAUAUGCUGAUAAGCAGAAGGAACGGAGAUCGAAGGAUCUCAUAUGUAGUCU [whbob_Ex_FMNA__2th193] | 170 | 92.1 | 86.9 | 117 | 89 |
| CGCGCGGGUUGAGAGGUUCGCGCGAAUGAUACCAGUAUAUAAGAAUACCCUUGGCAGCAUAAGAAAGAUAUAGUGAUGUUGUAUA [SSTheophA.G] | 408 | 211 | 262 | 355 | 262 |
| GGAUAGGAUAGAGGAUAUGGCUUACACAGAAAUAACUUGUUGUGUUUAUCCAUAGGGAGUGAUGUUCCAGAAGGCUGUCCUAUCG [MatMod 19 - Jieux - Exclusion - FMN B] | 743 | 197 | 210 | 232 | 161 |
| UGAUAGGACAGAAGGAGCGGGAGUGAUGUUCCCAAUAGGAGGUCUAGCAAAGCUGGACCCUCCCAGGUAGGUCGCUGUCCUAUCU [ArgBX 3 #SwitchBubble #StaticStem] | 102 | 115 | 96.1 | 115 | 108 |

| Sequence | apparent KD of K4 kissing-loop reporter (input ligand: FMN 200 uM) [nM] | apparent KD of K4 kissing-loop reporter (input ligand: arginine 13.2 mM) [nM] | apparent KD of K4 kissing-loop reporter (input ligand: none) [nM] | apparent KD of K4 kissing-loop reporter [1] [nM] | apparent KD of K4 kissing-loop reporter [2] [nM] |
| --- | --- | --- | --- | --- | --- |
| AAAGUGUCAGCACGAGUGAUGUUCGUGGAUACCAGCCUCGAUAAAGGCCCUUGGCAGCCGAAAAGUCAAGGGCUGGCACAUAAAA [KL-XTheo-A11] | 216 | 205 | 251 | 341 | 226 |
| AGGCACGAGCAAGGAUAUCGAGUGGAGUGAUGUUCUGCCGACCCAGGACCGCAAGGUCCUGGGUCGCGAGAAGGUGCUCGUGCCU [#2 Same State - FMN A Attempt #5 (HarryS)] | 254 | 642 | 730 | 676 | 685 |
| CCGGACACCUCGGAUACCAGCCUGAGUGAUGUUCAAGCUGAACUCUCUUAAUAGGUCACCGGCCCUUGGCAGCCGCAUCCUAAGC [theeternabot_exclusion_KL_Theo_B_46] | 375 | 269 | 353 | 310 | 313 |
| AAAAUAAGCCAGUGAUGUUGGGAUCCAGAUACCAGCGACGAAAGUCGCCCUUGGCAGCUGUGGACGUACAAAAUAAGUACGUCCU | 924 | 706 | 1040 | 927 | 992 |
| GCCAGUGAUGUUGGCAUUUCGAGCCAUGAAGGAGCGCACGGAAGUGCAGGUAGGUCGCAUGGUACUUAGGAUAUUAUCCUAAGUA [Antearxe] | 180 | 169 | 224 | 178 | 144 |
| UGAUACCAGACGGCCGCCACUAGGGCUAGCAAAGCUAGCAAGUGAUGUUUGAGGAGUGAUGUUCCUAGGACCGGGUCUGGUAUCU [TrypBX 1 #Palindromic #SwitchBubble #StaticStem] | 60.5 | 36.3 | 52.2 | 46.5 | 25.9 |
| UGACAUUGCUCAGAUACCAGACUUGAGGAUCACCCAAGUGCCAAACGUACAAUAAUAAAAGUCCCUUGGCAGCUGAGCAAUGUCU [TheoBX 14] | 201 | 13.4 | 97.2 | 112 | 62.1 |
| AGCGGCCAGUCGGCCGCCACUCCAAGCAGUGAUGUUGCUAAGUUUCUACAAGAGUGAUGUUCUUAGAGGACCGGGACUGAUGUGA [Exclusion Tryptophan B Gf 7] | 192 | 240 | 211 | 241 | 157 |
| UGGACCGCCUGAGGAUAUAGGGACGAGUGAUGUUCGUGGACCAGAGCCAGUGAUGUUGGGUUAUUUCUAGAAGGCGGGCGAACUU [Exclusion FMN B GF11] | 120 | 167 | 188 | 154 | 146 |
| GAUUGUGAUGGAAACAUCGCAAUCUCUGAAGGAGCGCGUGAAAACGCAGGUAGGUCGCAGAACGACAAAGACAGUGAUGUUGUCA [Ex Arginine A K4 5] | 321 | 263 | 289 | 298 | 234 |
| GUCCCAGUGAUGUUGGUAGGCGAGCGGGAUACCAGCGAAGACUCACGCCCUUGGCAGCCCACAUAUCCCGCGUAGGGAUUAGCUC [Same State - Theophylline A (Freestyle 21)] | 364 | 315 | 431 | 415 | 347 |
| AGUGCACUGUCAGGAUAUAUACAGUGAUGUUGUGUAUGUCAGCAAGUCAAAGACUUGCUUUUCUGUGUAGAAGGGACUGUGUACA [Omei KL FMN B Exc A v2] | 387 | 134 | 154 | 141 | 148 |
| AAAGAUCUUCUAGAAACUAGAAGAUCAAGAGAGGAUAUCCGAAUUCGGAGAAGGCUCACUAAGUGAUGUUUGGACCCAAAGGGAA [AK3 SS FMN A] | 1460 | 1520 | 1650 | 1600 | 1030 |
| AUUCGUUUAUGUGAUACCAGACUUUGCAGUGAUGUUGCUUUAAUUAAAGAUGUUUAGUUUGUCCCUUGGCAGCACUAUUUAUUUA [JR_SSTheophyB_Sub001] | 54 | 113 | 68.4 | 129 | 48.8 |
| UUAGAUCAAAGAUCAGUCUUAUGGAGGGAACGAGGACCGGUACGGCCGCCACUCGAGUGAUGUUCGAGAACCCUCGUGACAAAUU [AK4 EXC Tryptophan A] | 196 | 146 | 189 | 164 | 297 |
| CAGGUGCUGAUGCGGUGGCCGGUGGUCGUGCGAGGACCGGUACGGCCGCCACUCGCAUGAGUGAUGUUCAUGUGUCGUCGUCGUC [whbob_EX_Tryp_A_t2] | 229 | 136 | 188 | 192 | 223 |
| CGUGUAAUGUGGAGAUUUGAAAAGGCGCAUCGAGGACCGGUACGGCCGCCACUCGCUACGAGCUAGUGAUGUUGGCUCGUUCGGA [theeternabot_sameState_KL_Trp_A_23] | 238 | 209 | 210 | 252 | 194 |
| UGGAGUUGACGAAAAGUCAACUCCUGAGAUACCAGUGACGAAAGUCACCCUUGGCAGCUCACUGCCAGUGAUGUUGGAAAAUAAA [#OpenEnded 1] | 527 | 295 | 238 | 204 | 387 |
| AGACUUCACCGAAGGAGCGACGUAGCCUAGUGAUGUUAGGCACGAGAGAAAUCUCGUAUACGUCAGGUAGGUCGCGGUGAAGUCA [Omei KL Arginine B SS C v1] | 196 | 138 | 161 | 171 | 161 |
| UGGAUAUAGUGAUGUUAUAUAGAGAUGGAUACCAGCUAAGAGAAUGGCCCUUGGCAGCCGAAAGAAGUAUCAUUAGAGAAGAAUG [ExTheophyl.Ag] | 261 | 249 | 259 | 276 | 214 |
| AAUGCAUUGUGAAGGAGCGCGUUAAGCAGUGAUGUUGCUUUUAUAUUUUUCAGUUUUAUAUCGCAGGUAGGUCGCACUUUGCAUA [JR_Nu_SSArginiB_Sub029] | 172 | 158 | 173 | 192 | 148 |
